In patent US8895526B2, “Identification of RNAI targets and use of RNAI for rational therapy of chemotherapy-resistant leukemia and other cancers” (Cold Spring Harbor Laboratory, priority 2009, dated 2014):

B1: Dnajc10.2057: shRNA, SEQ ID NO: 113 (nucleic acid)
chain: TGCTGTTGACAGTGAGCGCTCCAACGACAGTGGTATTCAATAGTGAAGCCACAGATGTATTGAATACCACTGTCGTTGGATTGCCTACTGCCTCGGA
B2: Centa1.940: shRNA, SEQ ID NO: 106 (nucleic acid)
chain: TGCTGTTGACAGTGAGCGCCCGAAGGCTCATGTACTTCAATAGTGAAGCCACAGATGTATTGAAGTACATGAGCCTTCGGTTGCCTACTGCCTCGGA
B3: Pkm2.2154: shRNA, SEQ ID NO: 166 (nucleic acid)
chain: TGCTGTTGACAGTGAGCGCGCCCACCTGAATGTCAATAAATAGTGAAGCCACAGATGTATTTATTGACATTCAGGTGGGCATGCCTACTGCCTCGGA
B4: Nrg4.1358: shRNA, SEQ ID NO: 153 (nucleic acid)
chain: TGCTGTTGACAGTGAGCGCCAGACATGTTGAAGTGAATAATAGTGAAGCCACAGATGTATTATTCACTTCAACATGTCTGTTGCCTACTGCCTCGGA
B5: Mgst1.549: shRNA, SEQ ID NO: 142 (nucleic acid)
chain: TGCTGTTGACAGTGAGCGCAAGGAGCAGACTGTACTTGTATAGTGAAGCCACAGATGTATACAAGTACAGTCTGCTCCTTATGCCTACTGCCTCGGA
B6: Smpd2.592: shRNA, SEQ ID NO: 183 (nucleic acid)
chain: TGCTGTTGACAGTGAGCGACAGCATGTCTACAGTCTGAATTAGTGAAGCCACAGATGTAATTCAGACTGTAGACATGCTGGTGCCTACTGCCTCGGA
B7: Aspa.996: shRNA, SEQ ID NO: 92 (nucleic acid)
chain: TGCTGTTGACAGTGAGCGCATGAAGCTGCATATTATGAAATAGTGAAGCCACAGATGTATTTCATAATATGCAGCTTCATTTGCCTACTGCCTCGGA
B8: Nln.1429: shRNA, SEQ ID NO: 151 (nucleic acid)
chain: TGCTGTTGACAGTGAGCGAAAGGATAAAGCTACTGGAGAATAGTGAAGCCACAGATGTATTCTCCAGTAGCTTTATCCTTCTGCCTACTGCCTCGGA
B9: Hexa.1510: shRNA, SEQ ID NO: 131 (nucleic acid)
chain: TGCTGTTGACAGTGAGCGAGAGCAGTAACCTGACAACTAATAGTGAAGCCACAGATGTATTAGTTGTCAGGTTACTGCTCCTGCCTACTGCCTCGGA
B10: Acpp.818: shRNA, SEQ ID NO: 87 (nucleic acid)
chain: TGCTGTTGACAGTGAGCGAAAAGAGAAATCTCGACTCCAATAGTGAAGCCACAGATGTATTGGAGTCGAGATTTCTCTTTCTGCCTACTGCCTCGGA
B11: Ccr1.733: shRNA, SEQ ID NO: 101 (nucleic acid)
chain: TGCTGTTGACAGTGAGCGCCTGGATTGACTACAAGTTGAATAGTGAAGCCACAGATGTATTCAACTTGTAGTCAATCCAGATGCCTACTGCCTCGGA
B12: Ptpn18.247: shRNA, SEQ ID NO: 170 (nucleic acid)
chain: TGCTGTTGACAGTGAGCGCCACGAACAAGAACCGCTACAATAGTGAAGCCACAGATGTATTGTAGCGGTTCTTGTTCGTGTTGCCTACTGCCTCGGA
B13: Nrp1.479: shRNA, SEQ ID NO: 155 (nucleic acid)
chain: TGCTGTTGACAGTGAGCGCACCCTCATTCTTACCATCCAATAGTGAAGCCACAGATGTATTGGATGGTAAGAATGAGGGTATGCCTACTGCCTCGGA
B14: Fpr1.375: shRNA, SEQ ID NO: 124 (nucleic acid)
chain: TGCTGTTGACAGTGAGCGATTGGTTCATGTGCAAATTCATTAGTGAAGCCACAGATGTAATGAATTTGCACATGAACCAACTGCCTACTGCCTCGGA
B15: Mcl1.2018: shRNA, SEQ ID NO: 140 (also SEQ ID NO: 45) (nucleic acid)
chain: TGCTGTTGACAGTGAGCGCGGACTGGTTATAGATTTATAATAGTGAAGCCACAGATGTATTATAAATCTATAACCAGTCCATGCCTACTGCCTCGGA
B16: Slc11a1.307: shRNA, SEQ ID NO: 178 (nucleic acid)
chain: TGCTGTTGACAGTGAGCGCAACATTGAGTCCGACCTTCAATAGTGAAGCCACAGATGTATTGAAGGTCGGACTCAATGTTTTGCCTACTGCCTCGGA
B17: AU018778.350: shRNA, SEQ ID NO: 94 (nucleic acid)
chain: TGCTGTTGACAGTGAGCGCCTGAAGATTGCCTGTACCTAATAGTGAAGCCACAGATGTATTAGGTACAGGCAATCTTCAGATGCCTACTGCCTCGGA
B18: Cdc42ep3.1922: shRNA, SEQ ID NO: 104 (nucleic acid)
chain: TGCTGTTGACAGTGAGCGCAACAAGCAAGGTATTACTGTATAGTGAAGCCACAGATGTATACAGTAATACCTTGCTTGTTTTGCCTACTGCCTCGGA
B19: Myb.2652: shRNA, SEQ ID NO: 144 (also SEQ ID NO: 53) (nucleic acid)
chain: TGCTGTTGACAGTGAGCGCCCCAAGTAATACTTAATGCAATAGTGAAGCCACAGATGTATTGCATTAAGTATTACTTGGGATGCCTACTGCCTCGGA
B20: Myb.670: shRNA, SEQ ID NO: 145 (also SEQ ID NO: 54) (nucleic acid)
chain: TGCTGTTGACAGTGAGCGACACAACCATTTGAATCCAGAATAGTGAAGCCACAGATGTATTCTGGATTCAAATGGTTGTGCTGCCTACTGCCTCGGA
B21: Rock2.3898: shRNA, SEQ ID NO: 174 (nucleic acid)
chain: TGCTGTTGACAGTGAGCGCCAGATTCTATATGCCAATGAATAGTGAAGCCACAGATGTATTCATTGGCATATAGAATCTGATGCCTACTGCCTCGGA
B22: Klrb1b.845: shRNA, SEQ ID NO: 136 (nucleic acid)
chain: TGCTGTTGACAGTGAGCGCCAGATTCTTCATTGTATAAATTAGTGAAGCCACAGATGTAATTTATACAATGAAGAATCTGTTGCCTACTGCCTCGGA
B23: Fas.1344: shRNA, SEQ ID NO: 118 (nucleic acid)
chain: TGCTGTTGACAGTGAGCGCGAGGAGAATTATAAACTGAAATAGTGAAGCCACAGATGTATTTCAGTTTATAATTCTCCTCATGCCTACTGCCTCGGA
B24: Centd3.3993: shRNA, SEQ ID NO: 107 (nucleic acid)
chain: TGCTGTTGACAGTGAGCGCCTGGACCACAAGCATCCTTAATAGTGAAGCCACAGATGTATTAAGGATGCTTGTGGTCCAGTTGCCTACTGCCTCGGA
B25: S100a9.148: shRNA, SEQ ID NO: 177 (nucleic acid)
chain: TGCTGTTGACAGTGAGCGCCAGACAAATGGTGGAAGCACATAGTGAAGCCACAGATGTATGTGCTTCCACCATTTGTCTGATGCCTACTGCCTCGGA
B26: Klf5.581: shRNA, SEQ ID NO: 135 (nucleic acid)
chain: TGCTGTTGACAGTGAGCGCTCCGATAATTTCAGAGCATAATAGTGAAGCCACAGATGTATTATGCTCTGAAATTATCGGAATGCCTACTGCCTCGGA
B27: Ogg1.395: shRNA, SEQ ID NO: 157 (nucleic acid)
chain: TGCTGTTGACAGTGAGCGACAGATCAAGTATGGACACTGATAGTGAAGCCACAGATGTATCAGTGTCCATACTTGATCTGCTGCCTACTGCCTCGGA
B28: Myb.2572: shRNA, SEQ ID NO: 143 (also SEQ ID NO: 52) (nucleic acid)
chain: TGCTGTTGACAGTGAGCGCTCCATGTATCTCAGTCACTAATAGTGAAGCCACAGATGTATTAGTGACTGAGATACATGGAATGCCTACTGCCTCGGA
B29: Ntrk3.167: shRNA, SEQ ID NO: 156 (nucleic acid)
chain: TGCTGTTGACAGTGAGCGCCTGCAGCAAGACTGAGATCAATAGTGAAGCCACAGATGTATTGATCTCAGTCTTGCTGCAGATGCCTACTGCCTCGGA
B30: Gart.2713: shRNA, SEQ ID NO: 127 (nucleic acid)
chain: TGCTGTTGACAGTGAGCGAACCAGGGTAATTAATCACAAATAGTGAAGCCACAGATGTATTTGTGATTAATTACCCTGGTGTGCCTACTGCCTCGGA
B31: Tex14.3976: shRNA, SEQ ID NO: 185 (nucleic acid)
chain: TGCTGTTGACAGTGAGCGCCAGGAGCTACTTGATGAAATTTAGTGAAGCCACAGATGTAAATTTCATCAAGTAGCTCCTGATGCCTACTGCCTCGGA

Assays:
[1] = test system: tet-on competent MLL/AF9+Nras AML; assay: Pooled negative selection RNAi screening (deep sequencing); type: cell-based, mouse; conditions: deep sequencing reads, On Dox compared to T0
How it was run: (§1)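 A pool of 1230 tet-regulated shRNAs (TRMPV-type) was retrovirally transduced at mostly single copy and ~1000-fold representation into tet-on MLL/AF9+Nras AML cells or immortalized murine embryonic fibroblasts, then cultured on or off doxycycline. shRNA-expressing cells were FACS-sorted, and shRNA representation was quantified by PCR and deep sequencing of genomic DNA, with depletion on dox compared against t0 and off dox.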

[2] = test system: immortalized murine embryonic fibroblasts (Mef); assay: as above; type: cell-based; conditions: deep sequencing reads, on dox compared to initial representation
How it was run: as §1

Molecule | Fold depletion in AML [1] | Fold depletion in Mef [2]
B1 | 8.99 Fold | 1.47 Fold
B2 | 8.24 Fold | 1.13 Fold
B3 | 9.63 Fold | 1.92 Fold
B4 | 8.11 Fold | 0.54 Fold
B5 | 9.14 Fold | 1.09 Fold
B6 | 8.63 Fold | 2.89 Fold
B7 | 13.25 Fold | 0.68 Fold
B8 | 8.03 Fold | 1.61 Fold
B9 | 1,777.36 Fold | 2.13 Fold
B10 | 9.00 Fold | 0.85 Fold
B11 | 472.15 Fold | 1.18 Fold
B12 | 8.13 Fold | 0.21 Fold
B13 | 8.19 Fold | 0.83 Fold
B14 | 9.66 Fold | 3.07 Fold
B15 | 11.48 Fold | 3.02 Fold
B16 | 9.52 Fold | 0.41 Fold

Molecule | Fold depletion in AML [1] | Fold depletion in Mef [2]
B17 | 8.45 Fold | 1.18 Fold
B18 | 315.30 Fold | 0.38 Fold
B19 | 15.46 Fold | 1.14 Fold
B20 | 26.46 Fold | 1.28 Fold
B21 | 8.10 Fold | 1.04 Fold
B22 | 9.74 Fold | 0.43 Fold
B23 | 8.57 Fold | 1.36 Fold
B24 | 13.37 Fold | 1.77 Fold
B25 | 13.18 Fold | 2.68 Fold
B26 | 9.37 Fold | 1.01 Fold
B27 | 8.69 Fold | 1.44 Fold
B28 | 67.47 Fold | 0.92 Fold
B29 | 8.88 Fold | 1.76 Fold
B30 | 8.73 Fold | 2.22 Fold
B31 | 9.60 Fold | 1.90 Fold
